Residue numbers refer to the chain shown, from its start.
Columns and labels:
[1] = target: T1, CEACAM3 expressed on the surface of HEK293 cells (human, UniProt P40198 35-252); assay: flow cytometry on transfected HEK293 cells (GFP+ gate), PE goat anti-huIgG4 [a]
T1 construct: whole, on cells; GFP-tagged clone; also called CEACAM3-GFP
T1 sequence (looked up): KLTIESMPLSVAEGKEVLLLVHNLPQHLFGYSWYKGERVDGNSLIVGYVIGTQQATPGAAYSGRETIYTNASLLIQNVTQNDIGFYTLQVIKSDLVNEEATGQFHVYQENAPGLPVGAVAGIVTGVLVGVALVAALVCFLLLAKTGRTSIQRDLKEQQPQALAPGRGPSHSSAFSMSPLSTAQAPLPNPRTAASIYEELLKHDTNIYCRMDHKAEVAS
Description: (§1) HEK293 cells were added with 10 μg of each pEF1α-AcGFP-N1 vector (Clontech, Cat. No. 631973) as a control vector, CEACAM1, CEACAM3, CEACAM5, CEACAM6 and CEACAM8 plasmid vectors, followed by transfection under the condition of pulse voltage 1,100 V, pulse width 20 ms and pulse number 2. After 48 hours of transfection, GFP expression was confirmed by fluorescence microscopy. The cells were detached by treatment with 1 ml of TrypLE Express Solution (ThermoFisher Scientific; Cat. No. 12605010), resuspended in 9 ml of DMEM (Gibco, Cat. No. 11995-065) supplemented with 10% (v/v) FBS, and centrifuged at 1,200 rpm for 5 minutes, to remove the resulting supernatant.
(§2) After washing once with PBS, the cells were resuspended in a FACS buffer to obtain a concentration of 5×10⁵ cells/100 μl. Human Fc Block solution was added to the samples at 1 μl/sample, which were incubated at 4° C. for 10 minutes. The cells were treated with hulgG4 or one of the anti-CEACAM1 clones listed at 1 μg/5×10⁵ cells, which were incubated at 4° C. for 10 minutes. After washing with FACS buffer, the PE-labeled goat-anti-huIgG4 antibodies were diluted at a ratio of 1:200 in a FACS buffer, and added to the samples at 100 μl/sample, which were incubated at 4° C. for 30 minutes. The samples were filled with a FACS buffer up to 200 μl, and then centrifuged at 1,200 rpm for 5 minutes, to remove the resulting supernatant. The fixation buffer (300 μl) was added to resuspend the cells. The cells expressing GFP were selected in the FACS LSR-Fortessa device, and the expression of CEACAM members were evaluated respectively using the antibody specific to each CEACAM member (Table 3). Also, the binding of anti-CEACAM1 antibodies was evaluated by PE fluorescence channel and analyzed using the FlowJo software.

[2] = target: T2, CEACAM5 expressed on the surface of HEK293 cells (human, UniProt P06731 35-685); assay: as above
T2 construct: whole, on cells; GFP-tagged clone; also called CEACAM5-GFP
T2 sequence (looked up): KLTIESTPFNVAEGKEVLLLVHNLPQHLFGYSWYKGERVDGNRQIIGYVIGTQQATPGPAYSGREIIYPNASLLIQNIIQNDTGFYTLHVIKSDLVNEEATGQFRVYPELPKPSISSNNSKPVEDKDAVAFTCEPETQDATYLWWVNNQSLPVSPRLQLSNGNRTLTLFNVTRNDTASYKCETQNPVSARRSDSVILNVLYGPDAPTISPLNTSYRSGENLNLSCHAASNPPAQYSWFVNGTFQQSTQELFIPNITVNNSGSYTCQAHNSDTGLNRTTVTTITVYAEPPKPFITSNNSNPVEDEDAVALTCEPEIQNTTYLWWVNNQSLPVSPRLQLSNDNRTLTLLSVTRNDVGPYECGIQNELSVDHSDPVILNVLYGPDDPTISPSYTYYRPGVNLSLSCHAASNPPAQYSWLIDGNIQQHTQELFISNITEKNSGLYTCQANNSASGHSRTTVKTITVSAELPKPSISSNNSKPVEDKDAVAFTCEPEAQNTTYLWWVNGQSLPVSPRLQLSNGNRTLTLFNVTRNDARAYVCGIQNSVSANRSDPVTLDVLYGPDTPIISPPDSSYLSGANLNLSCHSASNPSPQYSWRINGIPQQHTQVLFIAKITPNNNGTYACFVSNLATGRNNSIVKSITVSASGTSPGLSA
Description: as §1, §2

[3] = target: T3, human CEACAM1 expressed on the cell surface (CEACAM1-Jurkat T cells); HEK293 cells transfected with human … (human, UniProt P13688 35-526); assay: flow cytometry on CEACAM1-Jurkat T cells; reference: the other clones (MFI 8,000)
T3 construct: whole, on cells; also called CCM1
T3 sequence (looked up): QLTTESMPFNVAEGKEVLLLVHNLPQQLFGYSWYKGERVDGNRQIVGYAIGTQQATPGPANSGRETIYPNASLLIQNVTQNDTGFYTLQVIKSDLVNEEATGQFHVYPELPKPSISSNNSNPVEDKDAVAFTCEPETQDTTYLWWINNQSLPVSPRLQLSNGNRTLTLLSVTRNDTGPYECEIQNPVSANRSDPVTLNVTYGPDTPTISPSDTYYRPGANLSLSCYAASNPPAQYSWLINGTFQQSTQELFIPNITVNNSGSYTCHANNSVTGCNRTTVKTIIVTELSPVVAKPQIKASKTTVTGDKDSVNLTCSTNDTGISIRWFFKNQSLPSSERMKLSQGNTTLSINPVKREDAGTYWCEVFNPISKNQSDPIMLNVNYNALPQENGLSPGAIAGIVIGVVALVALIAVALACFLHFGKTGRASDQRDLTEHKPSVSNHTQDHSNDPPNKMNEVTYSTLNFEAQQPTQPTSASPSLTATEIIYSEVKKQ
Description: The CEACAM1-Jurkat T cells prepared above were treated with Fc block solution and incubated for 15 minutes. […] Herein, it is noted that the cell numbers were adjusted to 1×10⁵. The cells incubated with the antibodies were repeatedly subjected to the washing procedure of resuspending the cells in a FACS buffer and centrifuging the solution at 1,500 rpm.
PE-conjugated goat anti-human F(ab)₂; (Sigma; Cat. No. P8047)) was diluted in the FACS buffer at a volume ratio of 1:200, and then added to the cells at 100 μl/well. Cells were resuspended well and incubated at 4° C. for 30 minutes in a dark condition.
The cells incubated with the fixation buffer were repeatedly subjected to the washing procedure of resuspending the cells in a FACS buffer, centrifuging the solution at 1,500 rpm, and discarding the supernatant. The washed cells were resuspended in 200 μl of a FACS buffer, and the mean fluorescence intensities (MFIs) of the PE-labeled cells were monitored by a FACS LSR-Fortessa. All FACS analyses were conducted using the FlowJo software.

B1: C25 (antibody, human IgG4 S228P, lambda, V domains shown)
VH: EVQLLESGGGLVQPGGSLRLSCAASGFTFSNYAMSWVRQAPGKGLEWVSVISHGGGSIYYADSVKGRLTISRDNSKNTLYLQMNSLRAEDTAVYYCARDPTKGYAPTFDYWGQGTLVTVSS
VL: QSVLTQPPSASGTPGQRVTISCSGSSSNIGNNYVSWYQQLPGTAPKLLIYADSKRPSGVPDRFSGSKSGTSASLAISGLRSEDEADYYCGAWDASLNGYVFGGGTKLTVLG
notes: Made in ExpiHEK293F cells, protein A purified. huIgG4 is the isotype control and anti-huIgG4 the detection reagent; the isotype is not otherwise stated; also called anti-CEACAM1 antibody C25
B1: no binding [1]; no binding [2].

B2: 4R9_H4-n20 (antibody, human IgG4 S228P, lambda, V domains shown)
VH: B1 VH with T28N
VL: B1 VL with K54R, A94L
notes: also called C25-derived clone 4R9_H4-n20
B2 was tested, and the “fold MFI against the other clones” value [3] was 1.5 times.
